{"source": "patent US20260274993A1", "about": "(HUMMINGBIRD BIOSCIENCE PTE, published 2026)", "binders": {"B1": {"name": "D011-7016.hIgG1 (antibody)", "heavy": "not shown", "light": "DIVMTQSPATLSVTPGDSVSLSCRANQSIDNNLHWYQQRSHESPRLLINYASQSISGIPSRFSGSGSGTDFTLSISSVETEDFGMYFCQQSYGWPYTFGGGTKLEIKRTVAAPSVFIFPPSDEQLKSGTASVVCLLNNFYPREAKVQWKVDNALQSGNSQESVTEQDSKDSTYSLSSTLTLSKADYEKHKVYACEVTHQGLSSPVTKSFNRGEC"}, "B2": {"name": "D011-1E11p.IgG2a (antibody, V domains shown)", "VH": "EVQLQQSGPELVKPGASMKISCKASGYSFTGSTMNWVKQSPGKNLEWIGLINPYNGGTSYNQKFEGKATLTVDKSSSTAYMELLSLTSVDSAVYYCASRGKNGYDGRDFDCWGQGTSVTVSS", "VL": "DIVLTQSPLSLPVNIGDQASISCKSTKSLLNSGGFTYLDWYLQKPGQSPQLLIYLVSNRFSGVPDRFSGSGSGTDFTLKISRVEAEDLGVYYCFQSNYFPFTFGSGTKLEIKR"}, "B3": {"name": "D011-6040 (antibody, human IgG1, kappa, V domains shown)", "VH": "EVQLQQSGAEFVRSGASVKLSCTASGFNIKDYYMHWVKQRPEQGLDWIGWIDPENGDADYDPKFQGKATMTADTSSNTAYLHLSSLTSEDAAVYYCNACHYYGYEDAMDYWGQGTSVTVSS", "VL": "DIQMTQSPSSLSASLGERVSLTCRASQEISGYLSWLQQKPDGTIKRLIYAASTLDSGVPKRFSGSRSGSDYSLTISSLESEDFADYYCLQYAGYPRTFGGGTRLEIKR", "notes": "also called [3]; D011-6040.IgG2a"}, "B4": {"name": "D011-7016.IgG2a (antibody)", "heavy": "EVQLVESGPSLVKPSQTLSLICSVTGDSITSGYWNWVRKFPGNKLEYMGYISYSGSAHYNPSLKSRISITRDTSKNQYYLQLNSMTTEDTATYYCASYSFAYWGQGTLVTVSAASTKGPSVFPLAPSSKSTSGGTAALGCLVKDYFPEPVTVSWNSGALTSGVHTFPAVLQSSGLYSLSSVVTVPSSSLGTQTYICNVNHKPSNTKVDKKVEPKSCDKTHTCPPCPAPELLGGPSVFIFPPKIKDVLMISLSPIVTCVVVDVSEDDPDVQISWFVNNVEVHTAQTQTHREDYNSTLRVVSALPIQHQDWMSGKEFKCKVNNKDLPAPIERTISKPKGSVRAPQVYVLPPPEEEMTKKQVTLTCMVTDFMPEDIYVEWTNNGKTELNYKNTEPVLDSDGSYFMYSKLRVEKKNWVERNSYSCSVVHEGLHNHHTTKSFSRTPGK", "light": "B1 light", "notes": "also called [4]"}, "B5": {"name": "D011-6039.IgG2a (antibody, V domains shown)", "VH": "EVMLVESGGGLVQPGGSLKLSCAASGFTFSSYGMSWVRQTPDKRLELVATINSNGVNTYYPDSVKGRFTISRDNAKNTLYLQMSSLKSEDTAMYYCARVPFDYWGQGTSLTVSS", "VL": "DIVMTQSPAIMSASLGEKVTMSCRASSSVDYIYWYQQKSDASPKLWIYYTSTLAPGVPARFSGSGSGNSYSLTISSMEGEDAATYYCQQFTSSPWTFGGGTRLEIKR"}}, "key": {"[1]": {"molecular_target": "tabalumab", "sequence (VH, as listed by the source, chain 1 of 2)": "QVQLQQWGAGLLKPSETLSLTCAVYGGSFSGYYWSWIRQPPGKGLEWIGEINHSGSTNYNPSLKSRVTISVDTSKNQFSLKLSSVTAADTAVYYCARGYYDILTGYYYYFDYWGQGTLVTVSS", "sequence (VL, as listed by the source, chain 2 of 2)": "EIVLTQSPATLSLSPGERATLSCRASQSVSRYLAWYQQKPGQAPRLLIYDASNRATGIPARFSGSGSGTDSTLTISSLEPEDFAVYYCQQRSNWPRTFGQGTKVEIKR", "assay": "cell-based or functional assay"}, "[2]": {"molecular_target": "zanolimumab", "T4 sequence (VH, as listed by the source, chain 1 of 2)": "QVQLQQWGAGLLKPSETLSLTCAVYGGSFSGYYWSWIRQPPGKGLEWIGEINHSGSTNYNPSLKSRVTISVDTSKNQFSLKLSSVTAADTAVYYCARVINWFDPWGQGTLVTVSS", "T4 sequence (VL, as listed by the source, chain 2 of 2)": "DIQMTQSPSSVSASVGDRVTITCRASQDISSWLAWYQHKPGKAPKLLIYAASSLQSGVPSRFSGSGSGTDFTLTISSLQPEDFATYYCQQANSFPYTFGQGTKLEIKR", "assay": "cell-based or functional assay"}, "[3]": {"molecular_target": "T1, antibodies containing VH4-34 endogenously expressed by cell line OCI-Ly3", "assay": "cell-based or functional assay"}, "[4]": {"molecular_target": "T2, Zanolimumab mutant FR1", "T2 construct": "also called Zano FR1", "T2 sequence (VH, as listed by the source, chain 1 of 2)": "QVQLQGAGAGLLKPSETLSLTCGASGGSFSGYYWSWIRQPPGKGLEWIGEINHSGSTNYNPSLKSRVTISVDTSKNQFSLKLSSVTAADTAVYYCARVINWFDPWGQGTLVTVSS", "assay": "flow cytometry, % parent (FITC), CHO cells expressing zanolimumab mutant FR1", "procedure": "(§1) FACS was performed according to standard protocols. Briefly, cells were assayed in PBS with 0.5% BSA and 2 mM EDTA. […] Following this, cells were incubated with a secondary anti-mouse FITC antibody for 30 mins at 4° C. FITC readout was measured by FACS on a benchtop flow cytometer."}, "[5]": {"molecular_target": "T3, 3A6", "T3 construct": "also called 3A6 antibody (containing VH4-34 antigen); 3A6 (VH4-34 antigen)", "T3 sequence (VH, as listed by the source, chain 1 of 2)": "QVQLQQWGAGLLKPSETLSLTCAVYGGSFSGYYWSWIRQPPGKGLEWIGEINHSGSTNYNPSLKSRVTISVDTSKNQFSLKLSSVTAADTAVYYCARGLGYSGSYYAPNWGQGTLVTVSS", "T3 sequence (VL, as listed by the source, chain 2 of 2)": "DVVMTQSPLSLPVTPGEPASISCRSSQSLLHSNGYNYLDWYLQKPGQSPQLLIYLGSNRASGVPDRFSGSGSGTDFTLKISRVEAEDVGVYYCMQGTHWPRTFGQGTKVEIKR", "assay": "flow cytometry, EC50 of % parent (FITC), CHO cells overexpressing surface 3A6", "procedure": "as §1"}, "[6]": {"molecular_target": "tabalumab", "assay": "flow cytometry, EC50 of % parent (FITC), CHO cells overexpressing surface tabalumab (Taba)", "procedure": "as §1"}, "[7]": {"molecular_target": "T4, zanolimumab", "T4 construct": "VH4-34-containing antibody used as the antigen, overexpressed on the surface of CHO cells; also called Zano.hIgG1", "assay": "flow cytometry, EC50 of % parent (FITC), CHO cells overexpressing surface zanolimumab (Zano); curve in FIG. 1A reaches only about 45 % parent", "procedure": "as §1"}, "[8]": {"molecular_target": "T3, 3A6", "assay": "flow cytometry, EC50 of % parent (FITC), CHO cells overexpressing surface 3A6", "remark": "listed apart in the source", "procedure": "as §1"}, "[9]": {"molecular_target": "tabalumab", "assay": "flow cytometry, EC50 of % parent (FITC), CHO cells overexpressing surface tabalumab (TABA)", "procedure": "as §1"}, "[10]": {"molecular_target": "T4, zanolimumab", "assay": "flow cytometry, EC50 of % parent (FITC), CHO cells overexpressing surface zanolimumab (ZANO)", "procedure": "as §1"}, "[11]": {"molecular_target": "T5, 3A6 mutant FR1", "T5 construct": "also called 3A6 FR1; 3A6-FR1 (VH4-34 FR1 mutant)", "T5 sequence (VH, as listed by the source, chain 1 of 2)": "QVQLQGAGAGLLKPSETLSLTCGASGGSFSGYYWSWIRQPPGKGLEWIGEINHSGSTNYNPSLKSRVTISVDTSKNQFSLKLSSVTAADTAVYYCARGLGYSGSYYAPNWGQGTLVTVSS", "assay": "flow cytometry, EC50 of % parent (FITC), CHO cells expressing 3A6 mutant FR1 (3A6 FR1); curve in FIG. 2A reaches about 95 % parent", "procedure": "as §1"}, "[12]": {"molecular_target": "T1, antibodies containing VH4-34 …", "assay": "flow cytometry, EC50 of % parent (PE), OCI-Ly3 cells endogenously expressing VH4-34; curve in FIG. 4A reaches only about 40 % parent", "procedure": "(§2) FACS was performed according to standard protocols. Briefly, cells were assayed in PBS with 0.5% BSA and 2 mM EDTA. Live dead staining was performed with a live dead cell dye for 15 minutes at 4° C. […] Following this, cells were incubated with a secondary PE goat anti-mouse IgG for 30 mins at 4° C. and PE readout was measured."}, "[13]": {"molecular_target": "T2, Zanolimumab mutant FR1", "assay": "flow cytometry, EC50 of % parent (FITC), CHO cells expressing zanolimumab mutant FR1 (ZANO FR1); curve in FIG. 2A reaches about 95 % parent", "procedure": "as §1"}, "[14]": {"molecular_target": "T6, Tabalumab mutant FR1", "T6 construct": "also called Taba FR1", "T6 sequence (VH, as listed by the source, chain 1 of 2)": "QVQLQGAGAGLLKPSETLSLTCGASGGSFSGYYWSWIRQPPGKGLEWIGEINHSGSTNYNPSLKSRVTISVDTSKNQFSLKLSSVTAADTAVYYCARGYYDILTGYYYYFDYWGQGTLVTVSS", "assay": "flow cytometry, EC50 of % parent (FITC), CHO cells expressing tabalumab mutant FR1 (TABA FR1); curve in FIG. 2A levels at only about 15 % parent", "procedure": "as §1"}, "[15]": {"molecular_target": "T5, 3A6 mutant FR1", "assay": "flow cytometry, % parent (FITC), CHO cells expressing 3A6 mutant FR1", "procedure": "as §1"}, "[16]": {"molecular_target": "T6, Tabalumab mutant FR1", "assay": "flow cytometry, % parent (FITC), CHO cells expressing tabalumab mutant FR1", "procedure": "(§3) For FACS evaluation, cells were assayed in PBS with 0.5% BSA and 2 mM EDTA. […] Cells were incubated with a secondary anti-mouse FITC antibody for 20 mins at 4° C. FITC readout was measured by FACS."}, "[17]": {"molecular_target": "T2, Zanolimumab mutant FR1", "assay": "flow cytometry, % parent (FITC), CHO cells expressing zanolimumab mutant FR1", "remark": "listed apart in the source", "procedure": "as §3"}, "[18]": {"molecular_target": "T3, 3A6", "assay": "flow cytometry, EC50 of % parent (FITC), CHO cells overexpressing surface 3A6", "remark": "listed apart in the source", "procedure": "as §3"}, "[19]": {"molecular_target": "T7, IGM-55.5", "T7 construct": "Cold agglutinin antibody coated on the plate in the ELISA", "assay": "ELISA on plate-coated IGM-55.5 (1 ug/ml), detection with HRP goat anti-mouse IgG", "procedure": "Plate was washed 3× with TBS+0.1% Tween 20. […] A secondary antibody (HRP-conjugated goat anti-mouse IgG) was prepared at 1:5000 dilution in blocking buffer and added to the plate with 1 hr incubation RT. TMB ELISA substrate was added and incubated for 15 mins at RT in the dark, before adding the stop solution. The absorbance was read at 450 nm."}, "[20]": {"molecular_target": "T1, antibodies containing VH4-34 …", "assay": "flow cytometry, EC50 of % parent (PE), OCI-Ly3 cells endogenously expressing VH4-34", "procedure": "as §2"}, "[21]": {"molecular_target": "tabalumab", "assay": "flow cytometry, EC50 of % parent (FITC), CHO cells overexpressing surface tabalumab (Taba)", "remark": "listed apart in the source", "procedure": "as §3"}, "[22]": {"molecular_target": "T4, zanolimumab", "assay": "flow cytometry, EC50 of % parent (FITC), CHO cells overexpressing surface zanolimumab (Zano)", "procedure": "as §3"}, "[23]": {"molecular_target": "T6, Tabalumab mutant FR1", "assay": "flow cytometry, % parent (FITC), CHO cells expressing tabalumab mutant FR1", "remark": "listed apart in the source", "procedure": "as §1"}, "[24]": {"molecular_target": "T2, Zanolimumab mutant FR1", "assay": "flow cytometry, % parent (FITC), CHO cells expressing zanolimumab mutant FR1", "remark": "listed apart in the source", "procedure": "as §1"}}, "note": "Like-named read-outs stand apart in the source and are kept apart here.", "data": [{"binder": "B1", "values": [{"measurement": "EC50 of ADCC reporter luminescence (RLU), Jurkat Lucia NFAT-CD16 effector cells with tabalumab-expressing CHO target cells", "setting": "[1]", "result": 1.02, "unit": "nM"}, {"measurement": "EC50 of ADCC reporter luminescence (RLU), Jurkat Lucia NFAT-CD16 effector cells with zanolimumab-expressing CHO target cells", "setting": "[2]", "result": 1.09, "unit": "nM"}, {"measurement": "EC50 of ADCP (% CFSE of CD14+ cells), M0 macrophages with CFSE-labelled OCI-Ly3 target cells", "setting": "[3]", "result": 0.0615, "unit": "nM"}]}, {"binder": "B2", "values": [{"measurement": "binding result", "setting": "[4]", "result": "no binding (tested: Log M about -7.2 (about 7e-8 M))"}, {"measurement": "EC50", "setting": "[5]", "result": 1.52, "unit": "nM"}, {"measurement": "EC50", "setting": "[6]", "result": 0.0823, "unit": "nM"}, {"measurement": "EC50", "setting": "[7]", "result": 3.49, "unit": "nM"}]}, {"binder": "B3", "values": [{"measurement": "EC50", "setting": "[8]", "result": 0.00895, "unit": "nM"}, {"measurement": "EC50", "setting": "[9]", "result": 0.00587, "unit": "nM"}, {"measurement": "EC50", "setting": "[10]", "result": 0.0043, "unit": "nM"}, {"measurement": "EC50", "setting": "[11]", "result": 4.8, "unit": "nM"}, {"measurement": "EC50", "setting": "[12]", "result": 0.661, "unit": "nM"}, {"measurement": "EC50", "setting": "[13]", "result": 0.821, "unit": "nM"}, {"measurement": "EC50", "setting": "[14]", "result": 3.93, "unit": "nM"}]}, {"binder": "B4", "values": [{"measurement": "binding result", "setting": "[15]", "result": "no binding (tested: Log M about -7.2 (about 7e-8 M))"}, {"measurement": "binding result", "setting": "[16]", "result": "no binding (tested: Log M about -8.1 (about 8e-9 M))"}, {"measurement": "binding result", "setting": "[17]", "result": "no binding (tested: Log M about -8.1 (about 8e-9 M))"}, {"measurement": "EC50", "setting": "[8]", "result": 0.0258, "unit": "nM"}, {"measurement": "EC50", "setting": "[18]", "result": 0.00751, "unit": "nM"}, {"measurement": "EC50 (read off the curve)", "setting": "[19]", "result": "~0.0002", "unit": "nM"}, {"measurement": "EC50", "setting": "[20]", "result": 0.0194, "unit": "nM"}, {"measurement": "EC50", "setting": "[9]", "result": 0.0313, "unit": "nM"}, {"measurement": "EC50", "setting": "[21]", "result": 0.00558, "unit": "nM"}, {"measurement": "EC50", "setting": "[10]", "result": 0.0164, "unit": "nM"}, {"measurement": "EC50", "setting": "[22]", "result": 0.00926, "unit": "nM"}]}, {"binder": "B5", "values": [{"measurement": "binding result", "setting": "[15]", "result": "no binding (tested: Log M about -7.2 (about 7e-8 M))"}, {"measurement": "binding result", "setting": "[23]", "result": "no binding (tested: Log M about -7.2 (about 7e-8 M))"}, {"measurement": "binding result", "setting": "[24]", "result": "no binding (tested: Log M about -7.2 (about 7e-8 M))"}, {"measurement": "EC50", "setting": "[8]", "result": 8.96, "unit": "nM"}, {"measurement": "EC50", "setting": "[20]", "result": 0.273, "unit": "nM"}, {"measurement": "EC50", "setting": "[9]", "result": 0.0444, "unit": "nM"}, {"measurement": "EC50", "setting": "[10]", "result": 10.4, "unit": "nM"}]}]}
